In publication PMC10397247:
One block for each binder: values may come before it.

Experiments:
Experiment in all cases: two-hybrid library CCmax;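 note: natural log of median RNA to DNA barcode read ratio; higher means stronger binding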
APC9141-AA = target: T1, APC9141-AA; details: mean of both orientations
T1 chain: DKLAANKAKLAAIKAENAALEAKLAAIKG

APC5009-AA = target: T2, APC5009-AA; details: mean of both orientations
T2 chain: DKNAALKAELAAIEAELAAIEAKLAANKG

APC9182-AA = target: T3, APC9182-AA; details: mean of both orientations
T3 chain: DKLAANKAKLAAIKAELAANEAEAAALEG

APC7524-AA = target: T4, APC7524-AA; details: mean of both orientations
T4 chain: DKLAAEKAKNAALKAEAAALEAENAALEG

APC9806-AA = target: T5, APC9806-AA; details: mean of both orientations
T5 chain: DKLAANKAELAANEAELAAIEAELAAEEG

APC3354-AA = target: T6, APC3354-AA
T6 chain: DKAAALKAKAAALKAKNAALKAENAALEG

APC9291-AA = target: T7, APC9291-AA; details: mean of both orientations
T7 chain: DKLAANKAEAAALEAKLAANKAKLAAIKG

APC8516-AA = target: T8, APC8516-AA; details: mean of both orientations
T8 chain: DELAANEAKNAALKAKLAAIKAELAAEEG

APC4100-AA = target: T9, APC4100-AA; details: mean of both orientations
T9 chain: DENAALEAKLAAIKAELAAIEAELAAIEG

APC542-AA = target: T10, APC542-AA; details: mean of both orientations
T10 chain: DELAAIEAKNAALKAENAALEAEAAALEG

APC3881-AA = target: T11, APC3881-AA; details: mean of both orientations
T11 chain: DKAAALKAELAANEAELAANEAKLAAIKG

APC4336-AA = target: T12, APC4336-AA; details: mean of both orientations
T12 chain: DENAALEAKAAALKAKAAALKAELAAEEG

APC8401-AA = target: T13, APC8401-AA; details: mean of both orientations
T13 chain: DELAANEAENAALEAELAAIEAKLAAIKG

APC5531-AA = target: T14, APC5531-AA; details: mean of both orientations
T14 chain: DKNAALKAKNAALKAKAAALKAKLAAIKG

APC6088-AA = target: T15, APC6088-AA; details: mean of both orientations
T15 chain: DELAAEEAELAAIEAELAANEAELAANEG

4H429-AA = target: T16, 4H429-AA; details: mean of both orientations
T16 chain: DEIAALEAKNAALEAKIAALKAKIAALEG

4H794-AA = target: T17, 4H794-AA; details: mean of both orientations
T17 chain: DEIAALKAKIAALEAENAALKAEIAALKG

4H3921-AA = target: T18, 4H3921-AA; details: mean of both orientations
T18 chain: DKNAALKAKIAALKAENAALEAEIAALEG

4H605-AA = target: T19, 4H605-AA; details: mean of both orientations
T19 chain: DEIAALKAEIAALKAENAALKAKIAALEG

4H2617-AA = target: T20, 4H2617-AA; details: mean of both orientations
T20 chain: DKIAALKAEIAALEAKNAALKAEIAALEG

4H335-AA = target: T21, 4H335-AA
T21 chain: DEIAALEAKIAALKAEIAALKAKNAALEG

4H454-AA = target: T22, 4H454-AA; details: mean of both orientations
T22 chain: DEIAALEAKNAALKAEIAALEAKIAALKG

4H3655-AA = target: T23, 4H3655-AA; details: mean of both orientations
T23 chain: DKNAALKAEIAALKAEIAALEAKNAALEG

4H342-AA = target: T24, 4H342-AA
T24 chain: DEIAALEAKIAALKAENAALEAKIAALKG

4H906-AA = target: T25, 4H906-AA; details: mean of both orientations
T25 chain: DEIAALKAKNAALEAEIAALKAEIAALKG

4H717-AA = target: T26, 4H717-AA; details: mean of both orientations
T26 chain: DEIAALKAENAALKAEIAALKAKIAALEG

4H2466-AA = target: T27, 4H2466-AA; details: mean of both orientations
T27 chain: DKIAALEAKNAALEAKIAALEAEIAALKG

4H2837-AA = target: T28, 4H2837-AA; details: mean of both orientations
T28 chain: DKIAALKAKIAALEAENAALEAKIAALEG

4H3844-AA = target: T29, 4H3844-AA; details: mean of both orientations
T29 chain: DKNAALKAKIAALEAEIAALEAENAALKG

4H2642-AA = target: T30, 4H2642-AA; details: mean of both orientations
T30 chain: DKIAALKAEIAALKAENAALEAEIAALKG

4H317-AA = target: T31, 4H317-AA; details: mean of both orientations
T31 chain: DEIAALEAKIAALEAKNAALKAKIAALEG

4H881-AA = target: T32, 4H881-AA; details: mean of both orientations
T32 chain: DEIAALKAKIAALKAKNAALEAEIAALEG

4H3112-AA = target: T33, 4H3112-AA; details: mean of both orientations
T33 chain: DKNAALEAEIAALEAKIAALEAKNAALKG

4H993-AA = target: T34, 4H993-AA; details: mean of both orientations
T34 chain: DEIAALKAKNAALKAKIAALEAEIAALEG

4H2505-AA = target: T35, 4H2505-AA; details: mean of both orientations
T35 chain: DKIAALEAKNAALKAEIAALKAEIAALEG

4H3606-AA = target: T36, 4H3606-AA; details: mean of both orientations
T36 chain: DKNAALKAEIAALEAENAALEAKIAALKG

4H48-AA = target: T37, 4H48-AA; details: mean of both orientations
T37 chain: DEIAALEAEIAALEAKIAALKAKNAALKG

4H2754-AA = target: T38, 4H2754-AA; details: mean of both orientations
T38 chain: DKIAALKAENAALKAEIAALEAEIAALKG

4H234-AA = target: T39, 4H234-AA
T39 chain: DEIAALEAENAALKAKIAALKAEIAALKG

4H2393-AA = target: T40, 4H2393-AA; details: mean of both orientations
T40 chain: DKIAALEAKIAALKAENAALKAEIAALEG

4H2949-AA = target: T41, 4H2949-AA; details: mean of both orientations
T41 chain: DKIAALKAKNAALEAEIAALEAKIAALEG

4H2883-AA = target: T42, 4H2883-AA; details: mean of both orientations
T42 chain: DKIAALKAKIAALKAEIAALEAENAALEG

4H2354-AA = target: T43, 4H2354-AA; details: mean of both orientations
T43 chain: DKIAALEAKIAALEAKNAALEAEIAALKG

4H780-AA = target: T44, 4H780-AA; details: mean of both orientations
T44 chain: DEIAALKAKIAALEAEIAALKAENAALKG

4H2729-AA = target: T45, 4H2729-AA; details: mean of both orientations
T45 chain: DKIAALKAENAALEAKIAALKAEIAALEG

4H3427-AA = target: T46, 4H3427-AA; details: mean of both orientations
T46 chain: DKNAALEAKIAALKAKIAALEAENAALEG

4H678-AA = target: T47, 4H678-AA; details: mean of both orientations
T47 chain: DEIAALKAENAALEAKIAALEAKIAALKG

4H2575-AA = target: T48, 4H2575-AA; details: mean of both orientations
T48 chain: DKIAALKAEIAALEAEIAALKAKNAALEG

4H566-AA = target: T49, 4H566-AA; details: mean of both orientations
T49 chain: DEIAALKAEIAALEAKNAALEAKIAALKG

4H3343-AA = target: T50, 4H3343-AA; details: mean of both orientations
T50 chain: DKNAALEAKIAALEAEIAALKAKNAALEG

4H2944-AA = target: T51, 4H2944-AA; details: mean of both orientations
T51 chain: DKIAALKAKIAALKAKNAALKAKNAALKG

4H3627-AA = target: T52, 4H3627-AA; details: mean of both orientations
T52 chain: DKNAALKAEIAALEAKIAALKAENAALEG

interaction score (APC9141-AA): -1.68 | interaction score (APC5009-AA): -1.49 | interaction score (APC9182-AA): -1.72 | interaction score (APC7524-AA): -1.71 | interaction score (APC9806-AA): -1.33 | interaction score (APC3354-AA): -1.59 | interaction score (APC9291-AA): -1.68 | interaction score (APC8516-AA): -1.98 | interaction score (APC4100-AA): -1.66 | interaction score (APC542-AA): -1.89 | interaction score (APC3881-AA): -1.72 | interaction score (APC4336-AA): -2.08 | interaction score (APC8401-AA): -1.48 | interaction score (APC5531-AA): -1.92 | interaction score (APC6088-AA): -1.77
Binder: DKAAALKAKAAALKAKNAALKAENAALEG [APC3354-AA]

interaction score (4H429-AA): -1.25 | interaction score (4H794-AA): -1.24 | interaction score (4H3921-AA): 0.388 | interaction score (4H605-AA): -1.45 | interaction score (4H2617-AA): -1.32 | interaction score (4H335-AA): -1.24 | interaction score (4H454-AA): 1.79 | interaction score (4H3655-AA): -0.983 | interaction score (4H342-AA): 0.11 | interaction score (4H906-AA): 0.324 | interaction score (4H717-AA): 0.359 | interaction score (4H2466-AA): -0.379 | interaction score (4H2837-AA): -1.08 | interaction score (4H3844-AA): -1.28 | interaction score (4H2642-AA): 0.56 | interaction score (4H317-AA): -1.11 | interaction score (4H881-AA): -1.05 | interaction score (4H3112-AA): -1.22 | interaction score (4H993-AA): 1.77 | interaction score (4H2505-AA): 1.67 | interaction score (4H3606-AA): -0.346 | interaction score (4H48-AA): -0.786 | interaction score (4H2754-AA): 2.04 | interaction score (4H234-AA): 1.91 | interaction score (4H2393-AA): 0.577 | interaction score (4H2949-AA): 1.73 | interaction score (4H2883-AA): -1.27 | interaction score (4H2354-AA): -0.425 | interaction score (4H780-AA): -1.42 | interaction score (4H2729-AA): 1.8 | interaction score (4H3427-AA): -1.32 | interaction score (4H678-AA): 1.31 | interaction score (4H2575-AA): -0.746 | interaction score (4H566-AA): 0.581 | interaction score (4H3343-AA): -0.996 | interaction score (4H2944-AA): -1.71 | interaction score (4H3627-AA): -0.624
Binder: DEIAALEAENAALKAKIAALKAEIAALKG [4H234-AA]
